Assay results published in US20100129347A1 (OSAKA UNIVERSITY, published 2010).

B1: human CD200-Ig fusion protein (Fc fusion)
chain: QVQVVTQDEREQLYTPASLKCSLQNAQEALIVTWQKKKAVSPENMVTFSENHGVVIQPAYKDKINITQLGLQNSTITFWNITLEDEGCYMCLFNTFGFGKISGTACLTVYVQPIVSLHYKFSEDHLNITCSATARPAPMVFWKVPRSGIENSTVTLSHPNGTTSVTSILHIKDPKNQVGKEVICQVLHLGTVTDFKQTVNKG
notes: Control for PILR-Ig; also called control Ig; not shown: Ig part not described
B2: HVEM-Ig (Fc fusion)
chain: LPSCKEDEYPVGSECCPKCSPGYRVKEACGELTGTVCEPCPPGTYIAHLNGLSKCLQCQMCDPAMGLRASRNCSRTENAVCGCSPGHFCIVQDGDHCAACRAYATSSPGQRVQKGGTESQDTLCQNCPPGTFSPNGTLEECQHQTKCSWLVTKAGAGTSSSHWV
notes: not shown: Ig part not described

How the values were obtained:
[1] = molecular target: T1, glycoprotein B (gB) of HSV-1 (HSV-1, UniProt P06436 30-903); assay: immunoprecipitation from lysate of HSV-1-infected 293T cells, SDS-PAGE, silver stain
T1 construct: also called protein of 110 kDa; PILR-recognizing ligand

[2] = molecular target: T2, FLAG-tagged extracellular region of gB (29th to 720th amino acids) with transmembrane and intracellu (HSV-1; mouse, UniProt P06436 29-720); assay: flow cytometry on transfected 293T cells
T2 construct: also called cell expressing gB; cells to which gB had been transfected

Binder	binding result [1]	binding result [2]
B1	no binding	–
B2	–	no binding
